This is an account of results in the RNAGym collection of RNA variant scans (doi:10.1021/acssynbio.7b00057).

B1: Pistol ribozyme (parent)
chain: GGGUCGUUGUUCCAUAAUCGCGUGGAUAUGGCACGCAAGUUUCUACCGGGCACCGUAAAUGUCCGACUGGAGCCGUUCGGGCGGCUAUAAACAGACCUCAGGCCCGAAGCGUGGCGGCACCUGCCGCCGGUGGUAAAAAAGAUCGGAAGAGCACACGUCU

The variants in this data set derive from B1. Description: aptazyme ON/OFF ratio, guanine; higher = stronger switching; co-transcriptional cleavage with and without guanine.
Take U7A U8C G9C U11G C12G: the “aptazyme ON/OFF ratio” value is 1.12.
For U10A U11C C12U C13U, the “aptazyme ON/OFF ratio” value came to 1.03.
For the variant U8A G9C U10A U11G C12A C13U, the “aptazyme ON/OFF ratio” value came out at 1.14.
On to U7C G9A U10G U11C C12G C13G, for which the “aptazyme ON/OFF ratio” value amounted to 1.34.
The same measure for U7C U8G U10A C12G C13G: 1.1; for U8A G9U U10G C12A C13U: 1.5.
As for U8G G9A U10C U11G C12G C13A, the figure is 1.34.
With U7G G9C U10C C12A, the “aptazyme ON/OFF ratio” value came to 1.5.
Turning to U7G G9C U10C C12U, the “aptazyme ON/OFF ratio” value worked out at 1.7.
The same measure for U8G U11A C13G: 1.11.
In the case of U7C G9U U10A U11C C13U, the “aptazyme ON/OFF ratio” value amounted to 1.07.
As for U7C U8A U10A U11A C12U C13A, the “aptazyme ON/OFF ratio” value was 1.23.
Take U7A G9A U10C U11C C12A C13G: the “aptazyme ON/OFF ratio” value is 1.08.
For the variant U7A G9A U10C U11C C12A C13A, the “aptazyme ON/OFF ratio” value was determined as 1.06.
On to G9C U11A C13G, for which the “aptazyme ON/OFF ratio” value was 1.04.
On to U7G U8G G9A U11G C12A C13A, for which the “aptazyme ON/OFF ratio” value amounted to 0.999.
With U10G, the “aptazyme ON/OFF ratio” value worked out at 1.88.
In the case of U7C U8G G9U U10A U11A C12U C13U, the “aptazyme ON/OFF ratio” value was determined as 1.25.
In the case of U7G U8C G9C U10G U11C C12G C13U, the “aptazyme ON/OFF ratio” value worked out at 1.19.
For U7G U8A G9C U10A U11G C12G, the “aptazyme ON/OFF ratio” value was 1.03.
Consider U7G U8A G9U U10A U11C C12U, for which the “aptazyme ON/OFF ratio” value worked out at 1.03.
With U7G U8C G9A U10G U11G C13U, the “aptazyme ON/OFF ratio” value amounted to 1.38.
With U7A U8C G9U U10A U11C C12G C13G, the “aptazyme ON/OFF ratio” value amounted to 1.08.
The same measure for U8G G9A U10A U11C C12U C13G: 1.23; for U7G U8C U10A U11G C12U C13G: 1.16; for U8A G9A U10C U11C C12A: 1.08.
The same measure for U7C U8A G9C U10A U11A C12G: 1.18.
For the variant U8A G9C U10A U11A C13A, the “aptazyme ON/OFF ratio” value is 1.16.
Turning to U7G U8G C12A C13G, the “aptazyme ON/OFF ratio” value came out at 1.22.
For the variant U7A U8G G9A U10A U11G C12G C13U, the “aptazyme ON/OFF ratio” value came to 1.48.
For G9A U10A U11C C12A C13U, the “aptazyme ON/OFF ratio” value is 1.41.
In the case of U7A U8G G9C U10G U11A C12G C13U, the “aptazyme ON/OFF ratio” value was found to be 1.46.
As for U8G G9C U10G U11C C12U, the figure is 1.03; as for U7C U8A U11C C13U, 1.04.
As for U7G U8A U10A C12U C13U, the figure is 1.09; as for U8C G9C C12A, 1.16; as for U7C U8C G9A U11A C13G, 1.13.
Take U7G U10C U11G C12G C13G: the “aptazyme ON/OFF ratio” value turned out to be 1.07.
For the variant U8C G9U U10A U11A C12A C13U, the “aptazyme ON/OFF ratio” value turned out to be 1.33.
The same measure for U7G U8C G9U C12G C13G: 1.32; for U7C U8C U10A U11A C13U: 1.29; for U7C U8A G9U U10G U11G C13U: 1.06.
As for U8G U10A U11A C13G, the figure is 1.07; as for U7C U8A G9U U10A U11C C12A C13A, 1.18.
U7G U8A G9U U10A U11G C13U: the “aptazyme ON/OFF ratio” value turned out to be 1.09.
On to U7C U8A G9A U10G, for which the “aptazyme ON/OFF ratio” value is 1.38.
With U8A U10C U11A C12U, the “aptazyme ON/OFF ratio” value turned out to be 1.2.
U8A G9A U10A U11G C12G C13U: the “aptazyme ON/OFF ratio” value came out at 1.29.
For U7A U8A G9U U10C C12G C13A, the “aptazyme ON/OFF ratio” value was found to be 1.31.
For U7C U8C G9A U10C U11A C13A, the “aptazyme ON/OFF ratio” value was determined as 1.41.
Take U7A U8G G9C U11A C12U C13G: the “aptazyme ON/OFF ratio” value was 1.37.
The same measure for U7G U8A U10A U11C C12G C13U: 1.18; for U8G G9U U11G C12G: 1.39.
Consider U7A U8A G9U U10C U11C C12G C13G, for which the “aptazyme ON/OFF ratio” value came to 1.07.
For G9C U10A U11A C13A, the “aptazyme ON/OFF ratio” value amounted to 1.22.
Turning to U7A G9C U11G C12A C13A, the “aptazyme ON/OFF ratio” value came out at 1.1.
In the case of U7A U8G G9A U10G U11C C12U C13U, the “aptazyme ON/OFF ratio” value was determined as 1.14.
Turning to U10G U11G C12A C13A, the “aptazyme ON/OFF ratio” value worked out at 1.15.
In the case of U7C U8G G9U C12A, the “aptazyme ON/OFF ratio” value stood at 1.64.
In the case of U7G U10C C13G, the “aptazyme ON/OFF ratio” value came out at 1.04.
The same measure for U7C U8C G9A U10C U11A C12A C13U: 1.18.
On to U7C U8A G9A U11C C12U, for which the “aptazyme ON/OFF ratio” value turned out to be 1.13.
Regarding U7A G9C U11G C12A, the “aptazyme ON/OFF ratio” value was 1.19.
For U7A G9U U11A C12U C13G, the “aptazyme ON/OFF ratio” value turned out to be 1.28.
As to U7A G9C U10A U11G C12A C13G, the “aptazyme ON/OFF ratio” value was 1.07.
Turning to U7C U8C G9U U10G U11G C12A C13A, the “aptazyme ON/OFF ratio” value was 1.01.
Consider U7C U8A C12U C13A, for which the “aptazyme ON/OFF ratio” value worked out at 1.17.
Regarding U7A G9A U10C U11C, the “aptazyme ON/OFF ratio” value turned out to be 1.01.
For U8C G9A U10G, the “aptazyme ON/OFF ratio” value is 1.57.
The same measure for U7G U8G G9A U10G U11C: 1.05; for U7A U8C G9U U10G U11G C13G: 1.14.
Take U7A U8A G9U U10A U11G C13G: the “aptazyme ON/OFF ratio” value amounted to 1.13.
Consider U8C G9U U10A C12U C13U, for which the “aptazyme ON/OFF ratio” value came out at 1.09.
For the variant U7G U8A G9A U10C C13A, the “aptazyme ON/OFF ratio” value is 1.09.
As to U7A U10C U11C C12G, the “aptazyme ON/OFF ratio” value stood at 1.14.
Regarding U7A U10C U11C, the “aptazyme ON/OFF ratio” value came out at 1.03.
As for U8C G9A U10G U11G C12U C13U, the figure is 1.22.
With U7A U8G G9C U10A C12A, the “aptazyme ON/OFF ratio” value amounted to 1.4.
As for U7G G9A U10C U11A C12U C13G, the “aptazyme ON/OFF ratio” value was determined as 1.05.
Take U7A U8A G9C U11C C12U C13U: the “aptazyme ON/OFF ratio” value turned out to be 1.08.
Consider U7C U8A G9C U10G U11G C12U C13G, for which the “aptazyme ON/OFF ratio” value came out at 1.1.
For U7C U8G U10G U11G C13U, the “aptazyme ON/OFF ratio” value came out at 1.39.
Consider U7A U8C U10C C12A C13G, for which the “aptazyme ON/OFF ratio” value worked out at 1.15.
As for U7A G9C U11G C13U, the “aptazyme ON/OFF ratio” value turned out to be 1.25.
